“Also recorded” adds a separate entry of the source.
Key:
Type in all cases: cell-based
patched gene = assay: Patched-specific semiquantitative RT-PCR of HeLa cells; details: compared to mock-transfected cells
Description: One of the most important targets of the Gli3 transcription factor is the patched gene. In order to analyse HeLa cells for Gli3 activity after treatment with the different molecules, semiquantitative RT-PCR of cells overexpressing the B-Box1 and the α4 protein was carried out (FIG. 13). HeLa cells have previously been tested for Gli3-, Gli1 (another target of the Gli3 transcription factor) and patched-expression.

Gli3 [1] = assay: Localization of overexpressed GFP-tagged Gli3 in HeLa cells; details: GFP-tagged Gli3-overexpressing HeLa cells
Description: 1×10^5 HELA cells per well of a 6-well plate were transfected with Qiagen Polyfect transfection reagent according to the manufacturer's instructions. The ratio of the amount of DNA to the amount of polyfect transfection reagent was 3 μg DNA/10 μl Polyfect. Constructs used for expression in HELA were the following: GFP-GLI3 (aa 18-1549), GLI3-GFP (aa 1-1522), MYC-GLI3 (aa 18-1596), FLAG-GLI3 (aa18-1596), MYC-B-BOX1 (aa 110-167 of the MID1 protein), ALPHA4-V5 (aa 1-339). 24 h after transfection immunofluorescence was performed. GFP-constructs were treated as described in Schweiger et al., 1999. Immunofluorescence with MYC-tagged and FLAG-tagged constructs was done according to Trockenbacher et al., 2001. FLAG-tagged constructs were detected with anti-FLAG-antibody diluted 1:500, the secondary antibody FITC-antimouse was diluted 1:1000. For MYC-tagged constructs anti-MYC-antibody 1:300 and CY3-antirabbit 1:1000 were used. […]
Overexpressed Gli3 is predominantly localized in the nucleus (FIG. 10, top left).

Gli3 [2] = assay: Localization of GFP-GLI3 in cultured U373MG cells; details: 24 hours after transfection, 100 cells counted
Description: COS7-HELA- and U373MG-cells were transfected using PolyFect Transfection Reagent (Qiagen, cat. no. 301107) according to the manufacturer's instructions. Gli3 cDNA was cloned into pEGFP-C1 and pEGFP-N3 vectors (Clontech) respectively. 100 transfected cells per experiment (Gli3-GFP, GFP-Gli3, Gli3-GFP+myc-MID1, GFP-Gli3+myc-MID1, Gli3-GFP+myc-BBox1, GFP-Gli3+myc-BBox1) were counted and analysed for Gli3 localization. Experiments were repeated twice. […] PCMV-Tag3 vector from Stratagene was used for myc-MID1 and myc-BBox1 overexpression.

PP2A [3] = assay: Ubiquitin-dependent regulation of PP2A in embryonic fibroblasts, Western blot; details: OS-derived cells
Description: Tissue culture. We obtained embryonic fibroblasts from the Max-Planck Institute for Cell Biology (Ladenburg, Germany) and purchased COS7 cells from the American Type Culture Collection (ATCC). Establishment of an embryonic fibroblast cell line from an OS-affected fetus has been described previously^4. We transfected COS7 cells following the Clontech protocol using LipofectACE. Expression was optimal 24-48 h after transfection. […] We determined integration copy number by Southern blot analysis. […]
For proteasome inhibition, we incubated embryonic fibroblasts with varying concentrations (10-50 μM) of LLnL (Sigma) for 2 h or with 10 μM of lactacystin (Sigma) for 5 h. […] Protein concentrations were determined with a Bradford assay. […]
For embryonic fibroblasts, we lysed 8×10^6 cells in IP1 buffer. […] We carried out densitometric quantification using the PCB computer program.
To obtain direct evidence for ubiquitin-dependent regulation of cytosolic PP2A, we analyzed amounts of cytosolic PP2A in embryonic fibroblasts, previously shown to contain large amounts of endogenous MID1 (ref. 2), after treatment with the proteasome inhibitor LLnL (FIG. 4b).

PP2A [4] = assay: Cytosolic PP2A in 293 cells expressing MID1-V5, Western blot; details: 293 cells expressing MID1-V5 versus control cells
Description: Immunoprecipitation, western blotting and immunofluorescence. For COS7 cells, we lysed in IP1 buffer 8×10^6 cells transfected with pBudCE4 vector carrying the respective cDNAs. After preclearing the lysate with 50 μl protein A-agarose (slurry), we incubated supernatants with 2 μg anti-V5 overnight at 4° C. and then for 2 h with 75 μl (slurry) protein A-agarose. After three washes in IP1 buffer, we eluted the proteins with 1× Laemmli buffer at 95° C. MID1-V5 expression was optimal 48 h after doxycyclin removal from 293 tet-off cell lines. We then lysed cells in IP1 buffer and carried out immunoprecipitation with 2 μg anti-V5. We boiled proteins in 1×SDS-PAGE buffer, separated them on 10% and 12% SDS gels, blotted on PVDF membranes (Roche) and blocked and incubated with the respective primary antibody according to the manufacturer's instructions.
If so, increased MID1 expression should coincide with a decrease of cytosolic PP2A. To test this hypothesis, we analyzed lysates containing equal amounts of protein from 293 cells expressing MID1-V5 (FIG. 4a, lane1) and control cells (FIG. 4a, lane 3) by western blotting with a polyclonal antibody that detects the C subunit of PP2A.

B1: α4: regulatory subunit of PP2A encoded by human IGBP1, overexpressed (protein, UniProt P78318 2-339, looked up)
Immunoglobulin-binding …: AAEDELQLPRLPELFETGRQLLDEVEVATEPAGSRIVQEKVFKGLDLLEKAAEMLSQLDLFSRNEDLEEIASTDLKYLLVPAFQGALTMKQVNPSKRLDHLQRAREHFINYLTQCHCYHVAEFELPKTMNNSAENHTANSSMAYPSLVAMASQRQAKIQRYKQKKELEHRLSAMKSAVESGQADDERVREYYLLHLQRWIDISLEEIESIDQEIKILRERDSSREASTSNSSRQERPPVKPFILTRNMAQAKVFGAGYPSLPTMTVSDWYEQHRKYGALPDQGIAKAAPEEFRKAAQQQEEQEEKEEEDDEQTLHRAREWDDWKDTHPRGYGNRQNMG
modifications: V5 tag
notes: regulatory subunit of PP2A encoded by human IGBP1, overexpressed
How did the patched message (patched gene) turn out when B1 was run?
Its patched message is “increased amount of PCR-product; also recorded: increase of the patched message”.

What about the Gli3 localization (Gli3 [1]) of the same molecule?
The Gli3 localization was “significant release of GFP-Gli3 to the nucleus”.

B2: MID1: RING-finger protein that interacts with the α4 subunit of microtubule associated PP2Ac; overexpressed from cDNA (protein)
chain: METLESELTCPICLELFEDPLLLPCAHSLCFNCAHRILVSHCATNESVESITAFQCPTCRHVITLSQRGLDGLKRNVTLQNIIDRFQKASVSGPNSPSETRRERAFDANTMTSAEKVLCQFCDQDPAQDAVKTCVTCEVSYCDECLKATHPNKKPFTGHRLIEPIPDSHIRGLMCLEHEDEKVNMYCVTDDQLICALCKLVGRHRDHQVAALSERYDKLKQNLESNLTNLIKRNTELETLLAKLIQTCQHVEVNASRQEAKLTEECDLLIEIIQQRRQIIGTKIKEGKVMRLRKLAQQIANCKQCIERSASLISQAEHSLKENDHARFLQTAKNITERVSMATASSQVLIPEINLNDTFDTFALDFSREKKLLECLDYLTAPNPPTIREELCTASYDTITVHWTSDDEFSVVSYELQYTIFTGQANVVSLCNSADSWMIVPNIKQNHYTVHGLQSGTKYIFMVKAINQAGSRSSEPGKLKTNSQPFKLDPKSAHRKLKVSHDNLTVERDESSSKKSHTPERFTSQGSYGVAGNVFIDSGRHYWEVVISGSTWYAIGLAYKSAPKHEWIGKNSASWALCRCNNNWVVRHNSKEIPIEPAPHLRRVGILLDYDNGSIAFYDALNSIHLYTFDVAFAQPVCPTFTVWNKCLTIITGLPIPDHLDCTEQLP
modifications: left off: large carriers
notes: overexpressed from cDNA
Which results are given for B2?
GFP-GLI3 localization (Gli3 [2]): No change; PP2Ac amount after transfection (PP2A [3]): normalizes the amount of PP2Ac; Cytosolic phosphatase 2A level (PP2A [4]): downregulated

— patent US8202696B2, “Means for use in treating diseases correlated with or caused by non-physiological levels of microtubule-associated PP2Ac” (Max-Planck-Gessellschaft zur Forderung der Wissenschaften …, priority 2002, dated 2012)
